Experimental findings from patent publication US20130315910A1 (Xencor, published 2013) are described below.

Where a chain is given by its changes, count along the chain named. Numbers in names are those of the source.

What is called Kd is the equilibrium constant for the complex coming apart. A higher Kd goes with a looser complex.

The labels stand for the following.
B1: L234D/S267E (antibody, human IgG1, kappa)
heavy: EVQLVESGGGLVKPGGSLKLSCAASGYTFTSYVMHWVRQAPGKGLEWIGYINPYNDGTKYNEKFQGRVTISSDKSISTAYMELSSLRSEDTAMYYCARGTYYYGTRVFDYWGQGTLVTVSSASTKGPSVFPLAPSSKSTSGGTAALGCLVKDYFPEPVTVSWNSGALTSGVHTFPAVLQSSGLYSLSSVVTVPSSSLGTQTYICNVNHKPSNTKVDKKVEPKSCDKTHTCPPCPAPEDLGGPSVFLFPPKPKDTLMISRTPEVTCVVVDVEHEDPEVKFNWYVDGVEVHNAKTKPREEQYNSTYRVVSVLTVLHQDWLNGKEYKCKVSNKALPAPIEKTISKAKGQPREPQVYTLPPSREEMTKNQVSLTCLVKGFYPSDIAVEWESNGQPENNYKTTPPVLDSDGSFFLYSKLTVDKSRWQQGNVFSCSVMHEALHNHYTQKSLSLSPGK
light: DIVMTQSPATLSLSPGERATLSCRSSKSLQNVNGNTYLYWFQQKPGQSPQLLIYRMSNLNSGVPDRFSGSGSGTEFTLTISSLEPEDFAVYYCMQHLEYPITFGAGTKLEIKRTVAAPSVFIFPPSDEQLKSGTASVVCLLNNFYPREAKVQWKVDNALQSGNSQESVTEQDSKDSTYSLSSTLTLSKADYEKHKVYACEVTHQGLSSPVTKSFNRGEC
notes: HuAM4G7 anti-CD19 IgG1 (m1) with these Fc substitutions, EU index; copies: 2 + 2
B2: L234Q (antibody, human IgG1, kappa)
heavy: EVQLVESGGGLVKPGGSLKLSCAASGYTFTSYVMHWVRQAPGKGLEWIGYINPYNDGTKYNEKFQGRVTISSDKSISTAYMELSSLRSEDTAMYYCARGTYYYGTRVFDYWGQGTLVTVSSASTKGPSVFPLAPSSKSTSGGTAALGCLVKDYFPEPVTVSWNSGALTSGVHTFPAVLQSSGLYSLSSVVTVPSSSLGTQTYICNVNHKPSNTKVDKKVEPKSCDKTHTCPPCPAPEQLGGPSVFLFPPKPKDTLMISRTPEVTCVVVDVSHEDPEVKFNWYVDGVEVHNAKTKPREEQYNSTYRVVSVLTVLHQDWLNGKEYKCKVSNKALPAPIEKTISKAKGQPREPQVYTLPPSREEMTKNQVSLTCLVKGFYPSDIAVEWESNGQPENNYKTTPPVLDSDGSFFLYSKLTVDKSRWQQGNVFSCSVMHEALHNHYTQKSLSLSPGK
light: B1 light
notes: HuAM4G7 anti-CD19 IgG1 (m1) with this Fc substitution, EU index; copies: 2 + 2
B3: G236F (antibody, human IgG1, kappa)
heavy: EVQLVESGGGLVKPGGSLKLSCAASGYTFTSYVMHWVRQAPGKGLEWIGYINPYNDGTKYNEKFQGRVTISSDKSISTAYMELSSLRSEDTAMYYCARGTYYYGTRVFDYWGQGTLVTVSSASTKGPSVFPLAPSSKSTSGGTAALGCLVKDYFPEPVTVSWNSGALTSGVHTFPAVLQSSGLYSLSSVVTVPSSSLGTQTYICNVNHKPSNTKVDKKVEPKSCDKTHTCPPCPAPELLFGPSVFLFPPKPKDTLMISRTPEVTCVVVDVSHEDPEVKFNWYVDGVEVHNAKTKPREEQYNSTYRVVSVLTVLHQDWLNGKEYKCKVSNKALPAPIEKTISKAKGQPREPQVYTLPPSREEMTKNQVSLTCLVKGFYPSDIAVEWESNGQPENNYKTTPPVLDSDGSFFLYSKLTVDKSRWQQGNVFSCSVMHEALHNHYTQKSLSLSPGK
light: B1 light
notes: as for B2
B4: L235N (antibody, human IgG1, kappa)
heavy: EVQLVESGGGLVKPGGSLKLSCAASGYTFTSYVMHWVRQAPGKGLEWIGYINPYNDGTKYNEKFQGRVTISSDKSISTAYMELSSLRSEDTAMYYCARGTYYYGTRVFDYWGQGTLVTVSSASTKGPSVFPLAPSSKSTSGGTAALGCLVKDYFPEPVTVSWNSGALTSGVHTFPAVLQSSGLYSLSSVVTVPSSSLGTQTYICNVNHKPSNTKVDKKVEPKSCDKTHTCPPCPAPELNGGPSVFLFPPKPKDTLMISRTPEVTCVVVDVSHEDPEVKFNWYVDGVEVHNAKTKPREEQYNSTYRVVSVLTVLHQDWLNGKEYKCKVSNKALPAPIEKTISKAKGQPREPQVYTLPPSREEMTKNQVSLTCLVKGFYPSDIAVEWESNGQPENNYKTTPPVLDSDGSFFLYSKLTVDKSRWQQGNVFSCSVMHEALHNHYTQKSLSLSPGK
light: B1 light
notes: as for B2
B5: L235E (antibody, human IgG1, kappa)
heavy: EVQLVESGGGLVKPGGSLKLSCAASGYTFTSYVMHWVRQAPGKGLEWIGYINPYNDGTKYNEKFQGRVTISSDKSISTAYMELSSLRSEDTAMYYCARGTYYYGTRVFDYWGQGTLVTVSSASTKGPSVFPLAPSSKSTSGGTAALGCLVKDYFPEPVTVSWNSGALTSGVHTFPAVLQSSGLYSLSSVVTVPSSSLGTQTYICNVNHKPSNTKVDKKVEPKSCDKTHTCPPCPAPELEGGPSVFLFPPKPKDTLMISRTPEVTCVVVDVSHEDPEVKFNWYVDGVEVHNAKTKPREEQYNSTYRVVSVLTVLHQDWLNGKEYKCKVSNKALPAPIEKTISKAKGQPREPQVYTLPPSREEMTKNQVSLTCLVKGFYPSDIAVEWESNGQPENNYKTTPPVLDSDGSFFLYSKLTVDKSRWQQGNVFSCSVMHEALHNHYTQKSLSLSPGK
light: B1 light
notes: as for B2
B6: S298E (antibody, human IgG1, kappa)
heavy: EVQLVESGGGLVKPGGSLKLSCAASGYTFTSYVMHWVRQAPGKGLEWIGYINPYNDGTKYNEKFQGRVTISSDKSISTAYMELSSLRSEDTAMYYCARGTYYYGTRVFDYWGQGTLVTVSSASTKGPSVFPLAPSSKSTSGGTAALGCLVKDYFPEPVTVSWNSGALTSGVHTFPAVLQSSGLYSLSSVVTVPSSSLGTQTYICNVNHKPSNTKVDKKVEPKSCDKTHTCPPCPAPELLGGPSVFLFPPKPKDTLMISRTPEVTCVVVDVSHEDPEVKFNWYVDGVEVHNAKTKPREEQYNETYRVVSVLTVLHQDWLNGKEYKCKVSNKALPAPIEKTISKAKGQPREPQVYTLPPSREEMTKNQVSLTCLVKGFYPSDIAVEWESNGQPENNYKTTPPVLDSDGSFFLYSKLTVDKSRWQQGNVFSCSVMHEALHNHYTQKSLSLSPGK
light: B1 light
notes: as for B2
B7: L234G (antibody, human IgG1, kappa)
heavy: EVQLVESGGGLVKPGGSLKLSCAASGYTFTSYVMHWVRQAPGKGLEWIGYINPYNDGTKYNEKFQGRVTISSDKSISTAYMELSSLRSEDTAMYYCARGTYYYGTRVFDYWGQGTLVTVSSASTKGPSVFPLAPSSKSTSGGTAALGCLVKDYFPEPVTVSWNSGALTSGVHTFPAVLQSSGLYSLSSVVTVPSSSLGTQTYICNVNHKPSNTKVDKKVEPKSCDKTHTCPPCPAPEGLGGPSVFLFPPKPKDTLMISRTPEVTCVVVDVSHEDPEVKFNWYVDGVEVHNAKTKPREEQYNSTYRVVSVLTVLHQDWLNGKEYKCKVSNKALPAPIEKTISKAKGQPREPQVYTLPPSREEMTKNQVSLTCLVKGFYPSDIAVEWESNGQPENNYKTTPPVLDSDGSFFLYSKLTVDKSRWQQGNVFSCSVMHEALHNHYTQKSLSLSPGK
light: B1 light
notes: as for B2
B8: S298D (antibody, human IgG1, kappa)
heavy: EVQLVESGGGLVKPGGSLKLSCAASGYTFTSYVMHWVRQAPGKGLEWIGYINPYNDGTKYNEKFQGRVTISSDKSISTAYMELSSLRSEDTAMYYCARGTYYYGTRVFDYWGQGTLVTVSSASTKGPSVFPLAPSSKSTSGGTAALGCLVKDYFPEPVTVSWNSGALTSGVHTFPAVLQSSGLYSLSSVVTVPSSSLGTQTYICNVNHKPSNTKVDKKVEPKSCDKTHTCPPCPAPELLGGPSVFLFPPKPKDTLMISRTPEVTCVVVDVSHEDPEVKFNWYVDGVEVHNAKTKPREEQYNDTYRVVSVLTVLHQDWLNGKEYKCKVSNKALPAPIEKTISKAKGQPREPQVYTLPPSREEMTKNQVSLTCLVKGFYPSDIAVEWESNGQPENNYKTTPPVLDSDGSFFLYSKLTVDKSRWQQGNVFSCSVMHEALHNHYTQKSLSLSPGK
light: B1 light
notes: as for B2
B9: G236E/S267E (antibody, human IgG1, kappa)
heavy: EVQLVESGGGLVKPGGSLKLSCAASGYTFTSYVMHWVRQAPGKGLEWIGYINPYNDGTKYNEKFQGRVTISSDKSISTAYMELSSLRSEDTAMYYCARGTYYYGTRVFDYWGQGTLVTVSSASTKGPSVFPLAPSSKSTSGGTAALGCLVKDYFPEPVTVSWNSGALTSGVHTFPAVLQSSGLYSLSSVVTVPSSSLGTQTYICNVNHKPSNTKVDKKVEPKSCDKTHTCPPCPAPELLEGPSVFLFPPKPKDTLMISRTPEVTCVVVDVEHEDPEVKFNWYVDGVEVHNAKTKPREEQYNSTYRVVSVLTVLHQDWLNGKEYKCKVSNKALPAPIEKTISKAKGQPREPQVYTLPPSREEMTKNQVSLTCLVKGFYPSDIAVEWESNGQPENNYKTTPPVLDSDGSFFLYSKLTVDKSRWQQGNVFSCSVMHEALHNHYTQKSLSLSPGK
light: B1 light
notes: as for B1
B10: L235A (antibody, human IgG1, kappa)
heavy: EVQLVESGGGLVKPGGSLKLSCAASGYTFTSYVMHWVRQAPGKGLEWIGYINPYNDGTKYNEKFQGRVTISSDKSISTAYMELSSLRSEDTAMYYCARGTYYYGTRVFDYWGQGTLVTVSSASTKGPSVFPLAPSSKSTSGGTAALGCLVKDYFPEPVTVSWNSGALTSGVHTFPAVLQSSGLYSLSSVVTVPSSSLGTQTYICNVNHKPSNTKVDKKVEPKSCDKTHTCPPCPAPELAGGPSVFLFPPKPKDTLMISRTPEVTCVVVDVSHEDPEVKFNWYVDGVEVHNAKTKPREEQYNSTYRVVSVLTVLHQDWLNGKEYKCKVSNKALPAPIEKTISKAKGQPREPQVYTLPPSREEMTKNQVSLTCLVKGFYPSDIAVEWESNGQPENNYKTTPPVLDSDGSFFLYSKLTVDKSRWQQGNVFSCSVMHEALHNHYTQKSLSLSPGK
light: B1 light
notes: as for B2
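For Fold vs WT IgG1 (off-rate) in this document: fold improvement over WT IgG1 so higher means slower dissociation than WT.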

T7 sequence (P12314 16-288 limits assumed): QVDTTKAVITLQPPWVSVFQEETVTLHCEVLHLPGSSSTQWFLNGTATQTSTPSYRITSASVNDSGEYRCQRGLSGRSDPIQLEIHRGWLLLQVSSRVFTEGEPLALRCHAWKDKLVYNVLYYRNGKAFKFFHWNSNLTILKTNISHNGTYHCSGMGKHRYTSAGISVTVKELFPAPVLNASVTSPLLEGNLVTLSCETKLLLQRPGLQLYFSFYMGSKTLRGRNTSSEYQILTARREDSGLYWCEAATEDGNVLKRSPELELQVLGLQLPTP

The target in one test is T1, cynoFcγRIIIa (Macaca fascicularis, UniProt Q8SPW2).
T1 construct: extracellular region, C-terminal His- and GST-tag; also called cynomolgus monkey FcγRIIIa
T1 sequence (Q8SPW2 17-208): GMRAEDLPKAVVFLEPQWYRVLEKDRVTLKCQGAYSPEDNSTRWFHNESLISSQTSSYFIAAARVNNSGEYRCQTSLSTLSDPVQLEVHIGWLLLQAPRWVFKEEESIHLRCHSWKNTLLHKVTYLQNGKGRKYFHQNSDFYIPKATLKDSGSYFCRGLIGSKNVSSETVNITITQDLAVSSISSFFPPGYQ
As to the kind of experiment: SPR. For orientation: In SPR one partner is held on a chip, and binding of the other changes the refractive index at the surface.
Consider B1, for which the “Fold vs WT IgG1 (off-rate)” value was 0.116 fold.
With B2, the “Fold vs WT IgG1 (off-rate)” value was found to be 0.379 fold.
B3: the “Fold vs WT IgG1 (off-rate)” value turned out to be 0.138 fold.
As to B4, the “Fold vs WT IgG1 (off-rate)” value stood at 0.351 fold.
Take B5: the “Fold vs WT IgG1 (off-rate)” value worked out at 0.367 fold.
On the same count and under the same terms, then B6, with 0.046 fold.
On to B7, for which the “Fold vs WT IgG1 (off-rate)” value was determined as 0.113 fold.
On the same count and under the same terms, then B8, with 0.309 fold.
For the molecule B9, the “Fold vs WT IgG1 (off-rate)” value worked out at 0.327 fold.
For B10, the “Fold vs WT IgG1 (off-rate)” value amounted to 0.53 fold.

For the next test, the target named is T2, mFcγRIV.
T2 construct: also called mouse FcγRIV; not shown: C-terminal His and GST tags (named only on our card)
T2 chain: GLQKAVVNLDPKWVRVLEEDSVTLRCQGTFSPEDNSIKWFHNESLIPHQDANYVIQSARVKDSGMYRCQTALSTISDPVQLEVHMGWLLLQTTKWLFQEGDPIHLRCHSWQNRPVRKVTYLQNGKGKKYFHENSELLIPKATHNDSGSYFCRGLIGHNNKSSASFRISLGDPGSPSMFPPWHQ
Nature of the test: SPR.
As for B4, the “Fold vs WT IgG1 (off-rate)” value is 0.241 fold.
For the molecule B5, the “Fold vs WT IgG1 (off-rate)” value came to 0.857 fold.
B6: the “Fold vs WT IgG1 (off-rate)” value was 0.136 fold.
Consider B8, for which the “Fold vs WT IgG1 (off-rate)” value came out at 0.618 fold.
As to B10, the “Fold vs WT IgG1 (off-rate)” value was 0.496 fold.

Another test has as its target T3, cynoFcγRIIb (Macaca fascicularis, UniProt A0A140HDP4).
T3 construct: extracellular region, C-terminal His- and GST-tag; also called cynomolgus monkey FcγRIIb
T3 sequence (receptor extracellular region): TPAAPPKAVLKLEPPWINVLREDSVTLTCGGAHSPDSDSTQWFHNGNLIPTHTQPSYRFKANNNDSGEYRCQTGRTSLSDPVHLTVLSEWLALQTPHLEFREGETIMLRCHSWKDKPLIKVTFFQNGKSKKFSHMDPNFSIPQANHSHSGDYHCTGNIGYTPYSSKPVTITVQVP
Nature of the test: SPR.
Turning to B1, the “Fold vs WT IgG1 (off-rate)” value was 0.495 fold.

The next test has as its target T4, mFcγRIIb (Mus musculus, UniProt P08101).
T4 construct: extracellular region, C-terminal His- and GST-tag; also called mouse FcγRII
T4 sequence (receptor extracellular region, looked up): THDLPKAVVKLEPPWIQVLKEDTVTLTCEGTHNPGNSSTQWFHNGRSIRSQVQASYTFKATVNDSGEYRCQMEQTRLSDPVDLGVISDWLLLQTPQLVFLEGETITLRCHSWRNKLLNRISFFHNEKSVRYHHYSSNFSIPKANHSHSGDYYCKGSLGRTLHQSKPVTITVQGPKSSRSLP
As to the kind of experiment: SPR.
As to B1, the “Fold vs WT IgG1 (off-rate)” value was 1.04 fold.

For the next test, the target named is T5, human FcγRIIa (131R), His- and GST-tagged (human, UniProt P12318 34-217).
T5 construct: Expressed in HEK293T cells, purified by nickel chromatography; also called R131 FcγRIIa; not shown: 6xHis and GST tags of the pTT5 vector
T5 sequence (looked up): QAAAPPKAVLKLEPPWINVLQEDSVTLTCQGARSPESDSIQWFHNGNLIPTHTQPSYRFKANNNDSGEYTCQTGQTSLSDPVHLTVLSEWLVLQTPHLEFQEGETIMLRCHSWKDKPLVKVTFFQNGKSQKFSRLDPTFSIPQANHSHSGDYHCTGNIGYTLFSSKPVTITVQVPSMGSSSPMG
As to the kind of experiment: SPR.
Take B1: the “Fold vs WT IgG1” value came out at 12.7 fold and the Kd was 67.7 nM.
As to B2, the “Fold vs WT IgG1” value was found to be 0.0372 fold and the Kd was determined as 23100 nM.
For B3, the “Fold vs WT IgG1” value is 0.00859 fold and binding was characterised by a dissociation constant (Kd) of 100000 nM.
On to B4, for which the “Fold vs WT IgG1” value was found to be 0.0356 fold and binding was characterised by a dissociation constant (Kd) of 24100 nM.
B5: the “Fold vs WT IgG1” value was found to be 0.333 fold and the Kd was 2580 nM.
On to B6, for which the binding result is listed as “no binding”.
Take B7: the “Fold vs WT IgG1” value was found to be 0.0859 fold and the Kd came to 10000 nM.
For the molecule B8, the “Fold vs WT IgG1” value came to 1.45 fold and the Kd was 592 nM.
In the same order, the values of B9 are 36.5 fold and 23.5 nM.
Regarding B10, the “Fold vs WT IgG1” value came out at 0.166 fold and the Kd is 5180 nM.

For the next test, the target named is T6, human FcγRIIa (131H), His- and GST-tagged (human, UniProt P12318 34-217).
T6 construct: also called H131 FcγRIIa; HIIa; not shown: 6xHis and GST tags of the pTT5 vector
T6 sequence (looked up): T5 sequence (looked up) with R134H
Nature of the test: SPR.
Take B10: the “Fold vs WT IgG1” value came out at 0.0486 fold and the affinity, expressed as Kd, was 13300 nM.

Another test addresses T7, human FcγRI receptor protein (R&D Systems) (human, UniProt P12314 16-288).
T7 construct: also called soluble FcγRI; solFcγRI
Nature of the test: SPR.
For B1, the “Fold vs WT IgG1” value came out at 0.0286 fold and the affinity, expressed as Kd, was 11.5 nM.
In the same order, the values of B10 are 0.0179 fold and 18.4 nM.

A further test has as its target T8, human FcγRIIb receptor protein (R&D Systems) (human, UniProt P31994 46-217).
T8 construct: Bought protein injected over captured antibody in Biacore; also called CD32b
T8 sequence (looked up): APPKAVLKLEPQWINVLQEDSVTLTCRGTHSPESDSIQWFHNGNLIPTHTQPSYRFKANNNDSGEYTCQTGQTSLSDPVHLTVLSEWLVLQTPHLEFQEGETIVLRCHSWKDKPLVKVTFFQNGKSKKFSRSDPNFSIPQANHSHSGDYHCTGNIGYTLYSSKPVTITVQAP
As to the kind of experiment: SPR.
On to B1, for which the “Fold vs WT IgG1” value turned out to be 21.7 fold and the Kd stood at 67.8 nM.
In the same order, the values of B2 are 0.147 fold and 10000 nM.
For B3, the “Fold vs WT IgG1” value turned out to be 0.0147 fold and binding was characterised by a dissociation constant (Kd) of 100000 nM.
In the same order, the values of B4 are 0.147 fold and 10000 nM.
For the molecule B5, the “Fold vs WT IgG1” value worked out at 0.55 fold and the affinity, expressed as Kd, was 2670 nM.
On to B6, for which the binding result is listed as “no binding”.
Regarding B7, the “Fold vs WT IgG1” value came out at 0.147 fold and the dissociation constant Kd was found to be 10000 nM.
In the case of B8, the “Fold vs WT IgG1” value is 0.797 fold and binding was put at a Kd of 1840 nM.
Take B9: the “Fold vs WT IgG1” value turned out to be 11.4 fold and the affinity, expressed as Kd, was 129 nM.
In the same order, the values of B10 are 0.351 fold and 4180 nM.

The target in the next test is T9, human FcγRIIIa (158V), His- and GST-tagged (human, UniProt P08637 17-208).
T9 construct: also called V158 FcγRIIIa; VIIIa; not shown: 6xHis and GST tags of the pTT5 vector
T9 sequence (P08637 17-208 F176V): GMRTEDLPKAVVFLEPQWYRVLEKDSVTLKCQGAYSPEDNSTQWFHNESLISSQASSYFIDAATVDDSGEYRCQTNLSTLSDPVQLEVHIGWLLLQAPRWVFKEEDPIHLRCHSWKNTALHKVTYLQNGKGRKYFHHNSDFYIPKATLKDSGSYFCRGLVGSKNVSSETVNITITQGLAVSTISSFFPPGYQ
Nature of the test: SPR.
In the case of B1, the “Fold vs WT IgG1” value amounted to 0.14 fold and binding was put at a Kd of 1370 nM.
In the same order, the values of B10 are 0.314 fold and 609 nM.

A further test addresses T2, mFcγRIV. As to the kind of experiment: SPR, off-rate. As to the method:
(§1) Variants were screened for receptor affinity using Biacore™ technology, also referred to as Biacore herein, a surface plasmon resonance (SPR) based technology for studying biomolecular interactions in real time. SPR measurements were performed using a Biacore 3000 instrument (Biacore, Piscataway, N.J.). A protein A/G (Pierce Biotechnology) CM5 biosensor chip (Biacore) was generated using a standard primary amine coupling protocol. All measurements were performed using HBS-EP buffer (10 mM HEPES pH 7.4, 0.15 M NaCl, 3 mM EDTA, 0.005% vol/vol surfactant P20, Biacore). Antibodies at 20 nM or 50 nM in HBS-EP buffer were immobilized on the protein A/G surface and FcγRs were injected. After each cycle, the surface was regenerated by injecting glycine buffer (10 mM, pH 1.5). Data were processed by zeroing time and response before the injection of FcγR and by subtracting appropriate nonspecific signals (response of reference channel and injection of running buffer). Kinetic analyses were performed by global fitting of binding data with a 1:1 Langmuir binding model using BIAevaluation software (Biacore).
(§2) Variant antibodies were tested for their affinity to mouse or cynologous monkey FcγRs using Biacore SPR as described above. Specifically, antibodies were first immobilized on a protein A/G chip to high density, and then followed by injections of the extracellular domain of the mouse or cynologous monkey FcγR of interest. Both association and dissociation phases were tracked in real time using the Biacore technology.
As for B1, the binding result is recorded as “no binding”.
Regarding B2, the binding result was “no binding”.
As for B3, the binding result is “no binding”.
The same measure, in the same setting: then B7, with “no binding”.
For B9, the binding result is recorded as “no binding”.

The target of another test is T3, cynoFcγRIIb. Nature of the test: SPR, off-rate. As to the method:
as §1, §2
Consider B2, for which the binding result is reported as “no binding”.
Consider B3, for which the binding result was “no binding”.
Turning to B4, the binding result is reported as “no binding”.
The same measure, in the same setting: then B5, with “no binding”.
B6: the binding result was “no binding”.
With B7, the binding result is recorded as “no binding”.
With B8, the binding result was “no binding”.
In the case of B9, the binding result was “no binding”.
Turning to B10, the binding result is “no binding”.

The target of a further test is T4, mFcγRIIb. As to the kind of experiment: SPR, off-rate. The method, then:
as §1, §2
For B2, the binding result is “no binding”.
On the same count and under the same terms, then B3, with “no binding”.
B4: the binding result is “no binding”.
Regarding B5, the binding result was “no binding”.
On to B6, for which the binding result was “no binding”.
For B7, the binding result is “no binding”.
With B8, the binding result is “no binding”.
As for B9, the binding result is given as “no binding”.
In the case of B10, the binding result is reported as “no binding”.
